In publication doi:10.1101/2021.11.20.466133v3:

Key:
purified protein [1] = substrate: Nc1ncnc2c1ncn2[C@@H]1O[C@H](COP(=O)(O)OP(=O)(O)OP(=O)(O)O)[C@@H](O)[C@H]1O; assay: purified protein; settings: pH 7.5, 37 °C, 5 mM MgCl2
purified protein [2] = substrate: [H][C@@]1(O)[C@]2([H])OP(=O)(O)OC[C@@]3([H])O[C@@]([H])(n4cnc5c(N)ncnc54)[C@]([H])(O)[C@]3([H])OP(=O)(O)OC[C@@]2([H])O[C@@]1([H])n1cnc2c(N)ncnc21; assay: purified protein; settings: pH 7.5, 5 mM MgCl2

B1: MsDisA (Mycolicibacterium smegmatis MC2 155) (protein)
chain: MAVKSGARSGRNVVHLARPTLRETLGRLAPGTPLRDGLERILRGRTGALIVLGYDDSVEAICDGGFVLDVRYAPTRLRELSKMDGAVVLSSDGSRILRANVQLVPDPSIPTDESGTRHRSAERTAIQTGYPVISVSHSMSIVTVYVAGERHVVPDSATILSRANQTIATLERYKGRLDEVSRQLSTAEIEDFVTLRDVMTVVQRLEMVRRISLEIDADVVELGTDGRQLKLQLDELVGDNETARELIVRDYHANPDPPTAAQVAATLEELDSLSDSELLDFTVLARVFGYPSTAEAQDSAMSSRGYRAMAAIPRLQFAHVDLLVRSFGSLQNLLAASADDLQSVDGIGSMWARHIREGLSLLAESTIADRLA
B1 was tested, and the Km (purified protein [1]) was 480 µM.

B2: MsPDE (Mycolicibacterium smegmatis MC2 155) (protein)
chain: MPVTTTDPKTGLLTGPDAQIAGARVDARGAADLLTAASSVSVICHVYPDADTIGAGLALAQVLAASGKHVEVSFATPAQLPESLQSLPGGHLLVAPEAMRRDADLVVTVDIPSINRLGALSGLAGPGREVLVIDHHASNQLFGTANYIDPSADSTTMLVAELLDAWGKPIDEKVAHCLYAGLTTDTGSFRWATARAHRLAARLVELGVDNASISRTLLDTHPFAWLPMLSRVLATARLLPDALDGRGFVYAVVPHDEWSEARPEEVESIVDIVRTTQQAEVAAVFKEIEPMHWSVSMRAKSVNLASVASAFGGGGHPHAAGYSATGSADDVVQALARALG
Protein B2 has a Km (purified protein [2]) of 370 µM.
